Entries after “also recorded” stand apart in the source; their conditions may differ.

For data set [1], the system named is Klebsiella pneumoniae strain 3K25. Briefly: Example 1: experimental infection in mice, cefpodoxime with or without native lactoferrin. To be noted: lactoferrin alone 0.4 mg/mouse p.o.; within 24 hours / one day after injection. Format: in vivo, strain ICR. The procedure: (§1) For ED50 values, a range of amounts of antibiotics is given in the examples (e.g., penicillin G: 0.4, 0.2, 0.1, 0.05 mg/mouse). To calculate the ED50, groups of mice in the monotherapy groups and groups of mice in the combined therapy groups received the indicated amount of antibiotic (e.g., one group received 0.4 mg/mouse of penicillin G, one group received 0.2 mg/mouse of penicillin G, one group received 0.1 mg/mouse of penicillin G, one group received 0.05 mg/mouse of penicillin G).
Sixty male mice, strain ICR, four weeks of age, body weight 19±1.0 g (mean±the standard deviation) were randomly divided into ten groups (n=6); the first group was assigned to the untreated control, the second group to the lactoferrin treated control group, the third through the sixth groups to the cephalosporin treated controls, and the seventh through the tenth groups to the combined treatment group of cephalosporin and lactoferrin. The mice were intraperitoneally injected with pneumobacillus, Klebsiella pneumoniae strain 3K25, 5×10^6 colony forming units (CFU) per mouse. The antibiotics used were orally active cephalosporin or cefpodoxime, and the bovine lactoferrin was the native one derived from cheese whey with 28.5% iron-saturation. […]

For data set [2] the test system is unchanged. Briefly: Example 2: experimental infection in mice, cefpodoxime with or without apolactoferrin. The format is in vivo, strain ICR. The conditions noted are these: lactoferrin treated control (iron free apolactoferrin 0.4 mg p.o.). The procedure:
as §1
Sixty male mice, strain ICR, five weeks of age, weighing 19.3±1.1 g (mean body weight±the standard deviation) were randomly allocated into ten groups (n=6), and intraperitoneally injected with pneumobacilli, Klebsiella pneumoniae strain 3K25, 5×10^5 CFU/mouse. One hour after the injection, the first group was orally given 0.2 ml of physiological saline, the second group orally given iron free apolactoferrin (0.4 mg) in 0.2 ml of saline, the third through the sixth groups were orally given cefpodoxime (4, 2, 1, and 0.5 mg/mouse) in 0.2 ml saline, and the seventh through the tenth groups orally given the admixture of cefpodoxime (4, 2, 1, and 0.5 mg/mouse) and apolactoferrin (0.4 mg) in 0.2 ml of saline. Mice were fed ad libitum and observed for a week under the same conditions as described in Example 1.

For data set [3] the test system is unchanged. The data set can be described thus: Example 5: experimentally infected fed and fasted mice, cefpodoxime with or without native lactoferrin. To be noted: cefpodoxime. The format is in vivo, strain ICR. The procedure:
as §1
Male mice, strain ICR, five weeks old, weighing an average of 21.6 g, were randomly allocated into sixteen groups (n =6). During the next 24 hours, eight groups were allowed free access to diet and water, while the other eight groups were fasted overnight. On the next day, all the mice were injected with 1.4×10^6 CFU/mouse of Klebsiella pneumoniae strain 3K25. The minimal lethal dose of this bacterium is […], and thus the injected dose was 1,000 times greater than the minimal lethal dose. Immediately after the injection, the fed groups were orally given cefpodoxime (10, 5, 2.5, and 1.25 mg/mouse) simultaneously with or without native lactoferrin (0.2 mg/mouse). The fasted groups also were orally given cefpodoxime (10, 5, 2.5, and 1.25 mg/mouse) simultaneously with or without native lactoferrin (0.2 mg/mouse).

The test system of a further data set is Escherichia coli #11. The data set can be described thus: Example 6: experimental infection in mice, ampicillin with or without apolactoferrin. Format: in vivo, strain ddY. The conditions noted are these: simultaneous administration of lactoferrin with ampicillin. The procedure:
as §1
Male mice, strain ddY, five weeks old, weighing an average of 21.5 g, were randomly allocated into groups (n=10), and they were intraperitoneally injected with Escherichia coli #11, 1.2×10^6 CFU/mouse. Immediately after the injection, the untreated control group was orally given 0.2 ml of distilled water, the second through the fifth groups were treated once orally by ampicillin (8, 4, 2 and 1 mg/mouse), and the sixth through the ninth groups with ampicillin (4, 2, 1 and 0.5 mg/mouse) plus apolactoferrin (1 mg/mouse) in 0.2 ml of distilled water. The mice were fed ad libitum and observed for one week under the same conditions as described in Example 1. […] It is apparent from the results that lactoferrin not only potentiates the efficacy of the cephalosporin class but also the penicillin class of antibiotics.

Data set [4] relates to Klebsiella pneumoniae 3K25. The data set can be described thus: Example 7: experimental infection in mice, cefaclor with or without native lactoferrin. The format is in vivo, strain ddY. To be noted: simultaneous oral beta-lactam antibiotics with lactoferrin one hour after i.p. injection (as shown in Table 3).
Data set [5] relates to Klebsiella pneumoniae strain 3K25. Briefly: Example 8: dose-response relationship of potentiation of cefpodoxime efficacy by oral lactoferrin. The format is in vivo, mice, ddY. As for the experimental part: as §1
The dose-response relationship of the potentiation of the antibiotic efficacy by lactoferrin was determined using the same experimental infection system as described in Example 1. Male ddY mice, five weeks of age, weighing approximate 20.3 g, were randomly allocated into groups (n=10); the first group was assigned to the cefpodoxime control (5 mg/mouse). The mice were intraperitoneally injected with pneumobacillus, Klebsiella pneumoniae strain 3K25, 3×10^5 per mouse. One hour after the injection, the antibiotic cefpodoxime (1, 0.5, 0.25 and 0.125 mg/mouse) was orally given in 0.2 ml of physiological saline.

For data set [6], the system named is Staphylococcus aureus 209P. The data set can be described thus: Example 9: time-schedule of lactoferrin administration and efficacy of amoxicillin. Format: in vivo, mice, ddY. The conditions noted are these: lactoferrin dosed from 12 hours before to three hours after the injection. The procedure: as §1
The effect of time-schedule of lactoferrin administration on the potentiation of antibiotic efficacy was examined using an experimental model similar to Example 1. Male ddY mice (n=10), five weeks old, weighing an average of 21.9 g, were used in this experiment. On day 0 all the mice were intraperitoneally injected with 1.2×10^5 CFU/mouse of Staphylococcus aureus 209P. Amoxicillin ([…], 0.625 mg/mouse) was orally given one hour after the injection.

For a further data set, the system named is pathogenic bacteria. Briefly: Potentiation of beta-lactam antibiotics by lactoferrin at the whole animal level (general statements). The format is in vivo. The procedure:
Co-administration of lactoferrin with beta-lactam antibiotics greatly reduces the antibiotic requirement, that is, 1/2 to 1/6 of the amount of the antibiotics required in monotherapy in combination with lactoferrin (combined therapy) show the same curative effects as the antibiotic treatment alone (monotherapy). Oral administration of lactoferrin is an effective route, and the dose of lactoferrin required for this potentiation is 0.5-100 mg/kg and the optimum dose may be 1-10 mg/kg.
Apolactoferrin can be utilized as a raw material to prepare lactoferrin with desired degrees of iron-saturation by adding calculated amounts of ferric ions in the presence of carbonium anions. […] Therefore, lactoferrins with various degrees of iron-saturation can be successfully utilized in this invention. The efficacy potentiation of beta-lactam antibiotics by lactoferrin is independent of the degree of the iron-saturation of lactoferrin.
When lactoferrin is orally dosed to potentiate the efficacy of beta-lactam antibiotics, either the combined formulation with the antibiotics or the formulation containing lactoferrin alone as an active ingredient can be successfully used. When lactoferrin is dosed separately from the antibiotics, the timing of the dosing is very important. The potentiating effect is the strongest when lactoferrin is given from six hours before to one hour after the antibiotic administration.

Data set [7] in a line: Stability of bovine lactoferrin powder. The format is physicochemical. From the text: The stability of bovine lactoferrin powder is also not affected by the degree of iron-saturation. […] Much care should be taken to avoid lactoferrin denaturation, especially denaturation by heat, in any formulating process. Due to its high stability, it is readily processed into mixed formulations with beta-lactam antibiotics for oral administration in any proportion, for example, freely mixed with lactose, cellulose, cellulose derivatives, magnesium stearate, and talc. One of the best ways to make lactoferrin liquid formulations, such as tincture and syrup, is adjustment of the pH to pH 3.1-4.0 by the addition of lactic acid to avoid bacterial contamination, then add paraaminobenzoic acid derivatives as preservatives against fungal contamination, and filtration through membrane filters (e.g., with pore size of 0.2 μm) into aseptic bottles.

The conditions of data set [8]: bovine lactoferrin, oral; cited from earlier work.
The subject of data set [9] is Klebsiella pneumoniae strain 3K25. The data set can be described thus: Example 3: experimental infection in mice, cefaclor with or without hololactoferrin. To be noted: hololactoferrin alone 0.4 mg/mouse p.o. The format is in vivo, strain ICR. As for the experimental part: as §1
Sixty male mice, strain ICR, five weeks of age, weighing 21.3±1.5 g (mean±the standard deviation) were randomly allocated into ten groups (n=6), and intraperitoneally injected with Klebsiella pneumoniae strain 3K25, 1×10^6 CFU/mouse. One hour after the injection, the first group was orally given 0.2 ml of physiological saline, the second group orally given hololactoferrin (100% ferric ion saturated lactoferrin, 0.4 mg/mouse), the third through the sixth groups orally given cefaclor (2.0, 1.0, 0.5 and 0.25 mg/mouse each) in 0.2 ml of saline, and the seventh through the tenth groups orally given cefaclor (2.0, 1.0, 0.5 and 0.25 mg/mouse each) and hololactoferrin (100% iron saturated lactoferrin, 0.4 mg/mouse) in 0.2 ml of saline. The mice were fed ad libitum and observed for one week under the same conditions as described in Example 1.

B1: lactoferrin: bovine lactoferrin, the native one derived from cheese whey with 28.5% iron-saturation (protein, UniProt P24627 20-708, looked up)
Lactotransferrin: APRKNVRWCTISQPEWFKCRRWQWRMKKLGAPSITCVRRAFALECIRAIAEKKADAVTLDGGMVFEAGRDPYKLRPVAAEIYGTKESPQTHYYAVAVVKKGSNFQLDQLQGRKSCHTGLGRSAGWIIPMGILRPYLSWTESLEPLQGAVAKFFSASCVPCIDRQAYPNLCQLCKGEGENQCACSSREPYFGYSGAFKCLQDGAGDVAFVKETTVFENLPEKADRDQYELLCLNNSRAPVDAFKECHLAQVPSHAVVARSVDGKEDLIWKLLSKAQEKFGKNKSRSFQLFGSPPGQRDLLFKDSALGFLRIPSKVDSALYLGSRYLTTLKNLRETAEEVKARYTRVVWCAVGPEEQKKCQQWSQQSGQNVTCATASTTDDCIVLVLKGEADALNLDGGYIYTAGKCGLVPVLAENRKSSKHSSLDCVLRPTEGYLAVAVVKKANEGLTWNSLKDKKSCHTAVDRTAGWNIPMGLIVNQTGSCAFDEFFSQSCAPGADPKSRLCALCAGDDQGLDKCVPNSKEKYYGYTGAFRCLAEDVGDVAFVKNDTVWENTNGESTADWAKNLNREDFRLLCLDGTRKPVTEAQSCHLAVAPNHAVVSRSDRAAHVKQVLLHQQALFGKNGKNCPDKFCLFKSETKNLLFNDNTECLAKLGGRPTYEEYLGTEYVTAIANLKKCSTSPLLEACAFLTR
modifications: 28.5% iron-saturated
notes: bovine lactoferrin, the native one derived from cheese whey with 28.5% iron-saturation
As for B1, the mortality entry in data set [1] was “all mice in those groups died by one day post-injection; also recorded: died within 24 hours”. For the same molecule, the “mortality within 24 hours” value in [2] is “All the mice died within 24 hours”. Further, the “rate of potentiation of antibiotic efficacy” value is given as “five fold” in data set [3] (fasted state) and “three fold” in data set [3] (fed state). The “potentiation of ampicillin efficacy in vivo” value in the data set with Escherichia coli #11 was “eight fold”. In addition, the “potentiation of the antibiotic efficacy versus antibiotic treatment alone” value in data set [4] was found to be 2.8 fold. Further, in [5] (lactoferrin doses from 50 to 0.05 mg per mouse, cefpodoxime), the “potentiation of antibiotic efficacy” value is recorded as “significantly potentiated the antibiotic efficacy at the same magnitude regardless of the dose”. The “lactoferrin dose at which potentiation reaches a plateau” value in data set [5] (with cefpodoxime) was 0.05 mg per mouse. For the same molecule, the “potentiation of amoxicillin's efficacy” value in data set [6] is listed as “significantly potentiated”. For the same molecule, the “effect of the degree of iron-saturation on potentiation of beta-lactam antibiotics” value with pathogenic bacteria (100%, 28% and 0% iron-saturated lactoferrin) is recorded as “does not affect the potentiation”. Further, the “potentiating effect by timing of lactoferrin dosing” value is “significant but less potent effect” in the data set on pathogenic bacteria (12 hours before or six hours after the antibiotic administration) and “the strongest” with pathogenic bacteria (from six hours before to one hour after the antibiotic administration). Further, the “effect of the degree of iron-saturation on stability” value in data set [7] is “not affected”. Further, the stability result in data set [7] (room temperature) is recorded as “very stable at room temperature”. Besides, the “excretion in intact form in feces” value in data set [8] is “considerable amounts are excreted in intact form in feces”. Moreover, in [8], the “resistance to gastrointestinal digestion” value is listed as “highly resistant to gastrointestinal digestion”.

B2: hololactoferrin: 100% ferric ion saturated lactoferrin (protein, UniProt P24627 20-708, looked up)
Lactotransferrin: B1 Lactotransferrin
modifications: 100% ferric iron saturated
notes: 100% ferric ion saturated lactoferrin
B2: the “mortality within 24 hours” value in data set [9] is listed as “died within 24 hours”.

Values taken from patent US5198419A, “Formulated medicines for enhancing the efficacy of beta-lactam antibiotics in prophylaxis and treatment against infectious disease due to pathogenic bacteria” (Immuno Japan Inc., priority 1989, dated 1993).
